Like-named read-outs stand apart in the source and are kept apart here.
B1: HEFLB (an analogue of BI 765063) (antibody, V domains shown)
VH: EVQLVQSGAEVKKPGESLRISCKASGYSFTSYWVHWVRQMPGKGLEWMGNIDPSDSDTHYSPSFQGHVTLSVDKSISTAYLQLSSLKASDTAMYYCVRGGTGTLAYFAYWGQGTLVTVSS
VL: DVVMTQSPLSLPVTLGQPASISCRSSQSLVHSYGNTYLYWFQQRPGQSPRLLIYRVSNRFSGVPDRFSGSGSGTDFTLKISRVEAEDVGVYYCFQGTHVPYTFGGGTKVEIK
B2: 6 × His tagged cynomolgus SIRPα ECD recombinant protein (domain or fragment)
chain: EEELQVIQPEKSVSVAAGDSATLNCTVSSLIPVGPIQWFRGAGPGRELIYNLKEGHFPRVTPVSDPTKRNNMDFSIRISNITPADAGTYYCVKFRKGSPDVELKSGAGTELSVRAKPSAPVVSGPAVRATAEHTVSFTCESHGFSPRDITLKWFKNGNELSDVQTNVDPAGKSVSYSIRSTARVVLTRRDVHSQVICEVAHVTLQGDPLRGTANLSEAIRVPPFLEVTQQSMRADNQVNVTCQVTKFYPQRLQLTWLENGNVSRTEMASALPENKDGTYNWTSWLLVNVSAHRDDVKLTCQVEHDGQPAVNKSFSVKVSAHPKEQGSNTAAENTGTNERN
B3: hu1H9 (an analogue of FSI-189, Gilead) (antibody, V domains shown)
VH: QVQLVQSGAEVKKPGASVKVSCKASGYTFTSYWITWVKQAPGQGLEWIGDIYPGSGSTNHIEKFKSKATLTVDTSISTAYMELSRLRSDDTAVYYCATGYGSSYGYFDYWGQGTLVTVSS
VL: DIQMTQSPSSLSASVGDRVTITCRASENIYSYLAWYQQKPGKAPKLLIYTAKTLAEGVPSRFSGSGSGTDFTLTISSLQPEDFATYYCQHQYGPPFTFGQGTKLEIK
B4: 6 × His tagged huSIRPγ ECD recombinant protein (domain or fragment)
chain: EEELQMIQPEKLLLVTVGKTATLHCTVTSLLPVGPVLWFRGVGPGRELIYNQKEGHFPRVTTVSDLTKRNNMDFSIRISSITPADVGTYYCVKFRKGSPENVEFKSGPGTEMALGAKPSAPVVLGPAARTTPEHTVSFTCESHGFSPRDITLKWFKNGNELSDFQTNVDPTGQSVAYSIRSTARVVLDPWDVRSQVICEVAHVTLQGDPLRGTANLSEAIRVPPTLEVTQQPMRVGNQVNVTCQVRKFYPQSLQLTWSENGNVCQRETASTLTENKDGTYNWTSWFLVNISDQRDDVVLTCQVKHDGQLAVSKRLALEVTVHQKDQSSDATP

Tests used:
[1] = target: huSIRPα V1 overexpressed on CHOK1/hSIRPα V1 cells (human, UniProt P78324 31-504); experiment: FACS; competition with huCD47 ECD
[2] = target: T1, 6 × His tagged huSIRPα V1 ECD recombinant protein (human, UniProt P78324 31-373); experiment: SPR
[3] = target: T1, 6 × His tagged huSIRPα V1 ECD …; experiment: SPR; remark: listed apart in the source
[4] = target: ES004-B5; experiment: SPR
[5] = target: B4; experiment: SPR
[6] = target: huSIRPα V2 overexpressed on CHOK1/hSIRPα V2 cells (human, UniProt P78324 31-504); experiment: FACS; competition with huCD47 ECD
[7] = target: B4; experiment: SPR
[8] = target: ES004-B5; experiment: SPR; remark: listed apart in the source

T1 sequence (P78324 31-373): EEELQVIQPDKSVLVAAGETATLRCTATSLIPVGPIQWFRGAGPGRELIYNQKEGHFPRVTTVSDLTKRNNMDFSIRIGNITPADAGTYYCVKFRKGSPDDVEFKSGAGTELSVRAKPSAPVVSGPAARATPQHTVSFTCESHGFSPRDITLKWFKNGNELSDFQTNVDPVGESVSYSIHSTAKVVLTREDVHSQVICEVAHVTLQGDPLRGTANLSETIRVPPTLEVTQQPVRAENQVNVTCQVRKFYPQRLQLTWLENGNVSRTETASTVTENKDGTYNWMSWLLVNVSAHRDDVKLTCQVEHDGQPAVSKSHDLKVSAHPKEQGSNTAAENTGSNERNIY
huSIRPα V1 overexpressed on CHOK1/hSIRPα V1 cells, sequence (P78324 31-504): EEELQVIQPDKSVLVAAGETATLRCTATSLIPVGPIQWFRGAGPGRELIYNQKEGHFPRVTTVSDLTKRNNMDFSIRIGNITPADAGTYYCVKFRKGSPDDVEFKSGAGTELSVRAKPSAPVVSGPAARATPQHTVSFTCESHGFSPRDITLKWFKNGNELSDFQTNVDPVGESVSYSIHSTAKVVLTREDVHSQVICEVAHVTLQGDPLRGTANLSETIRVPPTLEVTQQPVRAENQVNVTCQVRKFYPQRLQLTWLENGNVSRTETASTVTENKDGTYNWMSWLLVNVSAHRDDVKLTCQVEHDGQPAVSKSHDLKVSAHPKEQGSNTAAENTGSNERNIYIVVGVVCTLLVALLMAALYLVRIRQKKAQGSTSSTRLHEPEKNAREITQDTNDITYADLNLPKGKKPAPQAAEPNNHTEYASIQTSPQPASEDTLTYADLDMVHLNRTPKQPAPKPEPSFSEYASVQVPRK
huSIRPα V2 overexpressed on CHOK1/hSIRPα V2 cells, sequence (P78324 other isoform, or with tags, fused parts or gaps): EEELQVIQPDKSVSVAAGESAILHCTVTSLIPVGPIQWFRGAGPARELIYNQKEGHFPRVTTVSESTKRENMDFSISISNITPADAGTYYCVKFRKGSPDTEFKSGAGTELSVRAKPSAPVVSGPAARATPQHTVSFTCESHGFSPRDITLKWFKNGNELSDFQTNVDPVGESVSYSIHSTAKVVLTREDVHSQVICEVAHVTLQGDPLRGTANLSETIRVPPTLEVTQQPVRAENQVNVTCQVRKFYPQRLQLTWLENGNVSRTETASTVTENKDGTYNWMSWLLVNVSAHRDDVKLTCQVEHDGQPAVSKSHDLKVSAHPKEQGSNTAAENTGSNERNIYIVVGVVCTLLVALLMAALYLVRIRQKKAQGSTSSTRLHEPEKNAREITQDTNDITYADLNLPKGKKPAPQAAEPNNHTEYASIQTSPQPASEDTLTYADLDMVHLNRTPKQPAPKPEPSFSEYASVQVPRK

B1 gave an IC50 [1] of 1.29 nM, a Kd [2] of 12.8 nM and a koff [3] of 0.00631 s⁻¹.

B2 showed a Kd [4] of 6.01 nM and a koff [4] of 0.00729 s⁻¹.

Work on B3 yielded a koff [5] of 0.0135 s⁻¹, an IC50 [6] of 6.04 nM and an IC50 [1] of 1.17 nM. The Kd [2] was 1.91 nM, the Kd [7] was 20.7 nM and the koff [3] was 0.00187 s⁻¹.

For B4, the Kd [8] was 2.81 nM and the koff [8] was 0.00422 s⁻¹.
